From patent US20210032331A1 (PHANES THERAPEUTICS, published 2021)

T1: human LAG-3(ECD)-mFc (human, UniProt P18627 23-450)
T1 construct: also called hLAG3-mFc; human LAG-3 extracellular domain (ECD) fused to mouse Fc; not shown: mouse Fc
T1 sequence: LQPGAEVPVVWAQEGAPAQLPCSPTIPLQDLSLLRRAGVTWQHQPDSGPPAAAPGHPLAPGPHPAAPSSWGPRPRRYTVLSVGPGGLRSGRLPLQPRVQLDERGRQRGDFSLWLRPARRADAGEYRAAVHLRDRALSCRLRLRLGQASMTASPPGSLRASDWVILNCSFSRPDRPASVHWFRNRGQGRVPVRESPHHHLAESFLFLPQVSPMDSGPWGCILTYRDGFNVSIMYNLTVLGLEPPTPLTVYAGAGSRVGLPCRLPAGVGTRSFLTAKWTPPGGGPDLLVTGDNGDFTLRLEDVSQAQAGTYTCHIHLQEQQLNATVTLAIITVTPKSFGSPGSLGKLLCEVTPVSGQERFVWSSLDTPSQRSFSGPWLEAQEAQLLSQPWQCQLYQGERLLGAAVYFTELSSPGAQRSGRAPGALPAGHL

B1: B7(H4L5) (antibody, V domains shown)
VH: EVQLVQSGAEVKKPGASVKVSCKASGYTFSDYNLNWVRQAPGQTLEWMGLINLDSAATVYNQKFKGKATMTRDQSTSTAYMELSSLRSEDTAVYYCASYDYWGQGTLVTVSS
VL: DIQMTQSPSSLSASVGDRVTITCRASQDISHYLNWFQQKPGKAPKLLIYETSTLDFGVPSRFSGSGSGTDFTFTISSLQPEDIATYYCLQYATYPLTFGGGTKVEIK
notes: Humanized VH and VL fused to constant regions of human IgG4 heavy chain and kappa light chain; also called humanized B7 with B7/H4 heavy chain and B7/L5 light chain
B2: B7(H5L8) (antibody, V domains shown)
VH: EVQLVQSGAEVKKPGASVKVSCKASGYSFSDYNLNWVRQAPGQTLEWMGLINLDSAATVYNQKFKGKATMTIDQSTSTAYMELSSLRSEDTAVYYCASYDYWGQGTLVTVSS
VL: DIQMTQSPSSLSASVGDRVTITCRASQDISHYLNWFQQKPGKAPKRLIYETSTLDFGVPSRFSGSGSGTDFTFTISSLQPEDIATYYCLQYATYPLTFGGGTKVEIK
notes: Humanized VH and VL fused to constant regions of human IgG4 heavy chain and kappa light chain; also called humanized B7 with B7/H5 heavy chain and B7/L8 light chain
B3: B7(H3L5) (antibody, V domains shown)
VH: EVQLVQSGAEVKKPGASVKVSCKASGYTFSDYNLNWVRQAPGQGLEWMGLINLDSAATVYNQKFKGKATMTRDTSTSTVYMELSSLRSEDTAVYYCASYDYWGQGTLVTVSS
VL: DIQMTQSPSSLSASVGDRVTITCRASQDISHYLNWFQQKPGKAPKLLIYETSTLDFGVPSRFSGSGSGTDFTFTISSLQPEDIATYYCLQYATYPLTFGGGTKVEIK
notes: Humanized VH and VL fused to constant regions of human IgG4 heavy chain and kappa light chain; also called humanized B7 with B7/H3 heavy chain and B7/L5 light chain
B4: B7(H6L5) (antibody, V domains shown)
VH: EFQLVQSGAEVKKPGASVKVSCKASGYSFSDYNLNWVRQAPGQTLEWMGLINLDSAATVYNQKFKGKATMTIDQSTSTAYMELSSLRSEDTAVYYCASYDYWGQGTLVTVSS
VL: DIQMTQSPSSLSASVGDRVTITCRASQDISHYLNWFQQKPGKAPKLLIYETSTLDFGVPSRFSGSGSGTDFTFTISSLQPEDIATYYCLQYATYPLTFGGGTKVEIK
notes: Humanized VH and VL fused to constant regions of human IgG4 heavy chain and kappa light chain; also called humanized B7 with B7/H6 heavy chain and B7/L5 light chain
B5: B7(H4L8) (antibody, V domains shown)
VH: EVQLVQSGAEVKKPGASVKVSCKASGYTFSDYNLNWVRQAPGQTLEWMGLINLDSAATVYNQKFKGKATMTRDQSTSTAYMELSSLRSEDTAVYYCASYDYWGQGTLVTVSS
VL: DIQMTQSPSSLSASVGDRVTITCRASQDISHYLNWFQQKPGKAPKRLIYETSTLDFGVPSRFSGSGSGTDFTFTISSLQPEDIATYYCLQYATYPLTFGGGTKVEIK
notes: Humanized VH and VL fused to constant regions of human IgG4 heavy chain and kappa light chain; also called humanized B7 with B7/H4 heavy chain and B7/L8 light chain
B6: B7(H3L8) (antibody, V domains shown)
VH: EVQLVQSGAEVKKPGASVKVSCKASGYTFSDYNLNWVRQAPGQGLEWMGLINLDSAATVYNQKFKGKATMTRDTSTSTVYMELSSLRSEDTAVYYCASYDYWGQGTLVTVSS
VL: DIQMTQSPSSLSASVGDRVTITCRASQDISHYLNWFQQKPGKAPKRLIYETSTLDFGVPSRFSGSGSGTDFTFTISSLQPEDIATYYCLQYATYPLTFGGGTKVEIK
notes: Humanized VH and VL fused to constant regions of human IgG4 heavy chain and kappa light chain; also called humanized B7 with B7/H3 heavy chain and B7/L8 light chain
B7: B7(H1L8) (antibody, V domains shown)
VH: EVQLVQSGAEVKKPGASVKVSCKASGYTFSDYNLNWVRQAPGQGLEWMGLINLDSAATVYNQKFKGRVTMTRDTSTSTVYMELSSLRSEDTAVYYCASYDYWGQGTLVTVSS
VL: DIQMTQSPSSLSASVGDRVTITCRASQDISHYLNWFQQKPGKAPKRLIYETSTLDFGVPSRFSGSGSGTDFTFTISSLQPEDIATYYCLQYATYPLTFGGGTKVEIK
notes: Humanized VH and VL fused to constant regions of human IgG4 heavy chain and kappa light chain; also called humanized B7 with B7/H1 heavy chain and B7/L8 light chain
B8: B7(H5L5) (antibody, V domains shown)
VH: EVQLVQSGAEVKKPGASVKVSCKASGYSFSDYNLNWVRQAPGQTLEWMGLINLDSAATVYNQKFKGKATMTIDQSTSTAYMELSSLRSEDTAVYYCASYDYWGQGTLVTVSS
VL: DIQMTQSPSSLSASVGDRVTITCRASQDISHYLNWFQQKPGKAPKLLIYETSTLDFGVPSRFSGSGSGTDFTFTISSLQPEDIATYYCLQYATYPLTFGGGTKVEIK
notes: Humanized VH and VL fused to constant regions of human IgG4 heavy chain and kappa light chain; also called humanized B7 with B7/H5 heavy chain and B7/L5 light chain
B9: B7(H1L5) (antibody, V domains shown)
VH: EVQLVQSGAEVKKPGASVKVSCKASGYTFSDYNLNWVRQAPGQGLEWMGLINLDSAATVYNQKFKGRVTMTRDTSTSTVYMELSSLRSEDTAVYYCASYDYWGQGTLVTVSS
VL: DIQMTQSPSSLSASVGDRVTITCRASQDISHYLNWFQQKPGKAPKLLIYETSTLDFGVPSRFSGSGSGTDFTFTISSLQPEDIATYYCLQYATYPLTFGGGTKVEIK
notes: Humanized VH and VL fused to constant regions of human IgG4 heavy chain and kappa light chain; also called humanized B7 with B7/H1 heavy chain and B7/L5 light chain
B10: B7(H2L8) (antibody, V domains shown)
VH: EVQLVQSGAEVKKPGASVKVSCKASGYTFSDYNLNWVRQAPGQTLEWMGLINLDSAATVYNQKFKGRVTMTRDTSTSTVYMELSSLRSEDTAVYYCASYDYWGQGTLVTVSS
VL: DIQMTQSPSSLSASVGDRVTITCRASQDISHYLNWFQQKPGKAPKRLIYETSTLDFGVPSRFSGSGSGTDFTFTISSLQPEDIATYYCLQYATYPLTFGGGTKVEIK
notes: Humanized VH and VL fused to constant regions of human IgG4 heavy chain and kappa light chain; also called humanized B7 with B7/H2 heavy chain and B7/L8 light chain
B11: B7(H2L5) (antibody, V domains shown)
VH: EVQLVQSGAEVKKPGASVKVSCKASGYTFSDYNLNWVRQAPGQTLEWMGLINLDSAATVYNQKFKGRVTMTRDTSTSTVYMELSSLRSEDTAVYYCASYDYWGQGTLVTVSS
VL: DIQMTQSPSSLSASVGDRVTITCRASQDISHYLNWFQQKPGKAPKLLIYETSTLDFGVPSRFSGSGSGTDFTFTISSLQPEDIATYYCLQYATYPLTFGGGTKVEIK
notes: Humanized VH and VL fused to constant regions of human IgG4 heavy chain and kappa light chain; also called humanized B7 with B7/H2 heavy chain and B7/L5 light chain
B12: B5(H3L2) (antibody, V domains shown)
VH: QVQLVQSGAVVKKPGASVKMSCKASGYTFTGYYMNWMRQAPGQSLEWLAVINPYNGDTAYNRKFKGRATLTVDKSTSTAYMELSSLRSEDTAVYYCARDDGYHVRFFDVWGQGTTVTVSS
VL: DIQMTQSPSSLSASVGDRVTITCRSSQDISDYLSWLQQKPGGAIKSLIYSTSTLDSGVPSRFSGSRSGTDFTLTISSLQPEDFATYYCLQYASSPPTFGGGTKVEIK
notes: Humanized VH and VL fused to constant regions of human IgG4 heavy chain and kappa light chain; also called humanized B5 with B5/H3 heavy chain and B5/L2 light chain
B13: B5(H3L3) (antibody, V domains shown)
VH: QVQLVQSGAVVKKPGASVKMSCKASGYTFTGYYMNWMRQAPGQSLEWLAVINPYNGDTAYNRKFKGRATLTVDKSTSTAYMELSSLRSEDTAVYYCARDDGYHVRFFDVWGQGTTVTVSS
VL: DIQMTQSPSSLSASVGDRVTITCRSSQDISDYLSWLQQKPGGAIKSLIYSTSTLDSGVPSRFSGSRSGTDYTLTISSLQPEDFATYYCLQYASSPPTFGGGTKVEIK
notes: Humanized VH and VL fused to constant regions of human IgG4 heavy chain and kappa light chain; also called humanized B5 with B5/H3 heavy chain and B5/L3 light chain
B14: B5(H3L1) (antibody, V domains shown)
VH: QVQLVQSGAVVKKPGASVKMSCKASGYTFTGYYMNWMRQAPGQSLEWLAVINPYNGDTAYNRKFKGRATLTVDKSTSTAYMELSSLRSEDTAVYYCARDDGYHVRFFDVWGQGTTVTVSS
VL: DIQMTQSPSSLSASVGDRVTITCRSSQDISDYLSWLQQKPGGAPKSLIYSTSTLDSGVPSRFSGSRSGTDFTLTISSLQPEDFATYYCLQYASSPPTFGGGTKVEIK
notes: Humanized VH and VL fused to constant regions of human IgG4 heavy chain and kappa light chain; also called humanized B5 with B5/H3 heavy chain and B5/L1 light chain
B15: B5(H2L2) (antibody, V domains shown)
VH: QVQLVQSGAEVKKPGASVKMSCKASGYTFTGYYMNWMRQAPGQSLEWLGVINPYNGDTAYNRKFKGRVTLTVDKSTSTAYMELSSLRSEDTAVYYCARDDGYHVRFFDVWGQGTTVTVSS
VL: DIQMTQSPSSLSASVGDRVTITCRSSQDISDYLSWLQQKPGGAIKSLIYSTSTLDSGVPSRFSGSRSGTDFTLTISSLQPEDFATYYCLQYASSPPTFGGGTKVEIK
notes: Humanized VH and VL fused to constant regions of human IgG4 heavy chain and kappa light chain; also called humanized B5 with B5/H2 heavy chain and B5/L2 light chain
B16: B5(H1L4) (antibody, V domains shown)
VH: QVQLVQSGAEVKKPGASVKMSCKASGYTFTGYYMNWVRQAPGQSLEWLGVINPYNGDTAYNRKFKGRVTLTVDKSTSTVYMELSSLRSEDTAVYYCARDDGYHVRFFDVWGQGTTVTVSS
VL: DIQMTQSPSSLSASVGDRVTITCRSSQDISDYLSWLQQKPGGAIKRLIYSTSTLDSGVPKRFSGSRSGSDYTLTISSLQPEDFATYYCLQYASSPPTFGGGTKVEIK
notes: Humanized VH and VL fused to constant regions of human IgG4 heavy chain and kappa light chain; also called B5(HIL4); humanized B5 with B5/H1 heavy chain and B5/L4 light chain
B17: B5(H4L1) (antibody, V domains shown)
VH: QVQLRQSGAVVKKPGASVKMSCKASGYTFTGYYMNWMRQAHGQSLEWLAVINPYNGDTAYNRKFKGRATLTVDKSTSTAYMELSSLRSEDTAVYYCVRDDGYHVRFFDVWGQGTTVTVSS
VL: DIQMTQSPSSLSASVGDRVTITCRSSQDISDYLSWLQQKPGGAPKSLIYSTSTLDSGVPSRFSGSRSGTDFTLTISSLQPEDFATYYCLQYASSPPTFGGGTKVEIK
notes: Humanized VH and VL fused to constant regions of human IgG4 heavy chain and kappa light chain; also called humanized B5 with B5/H4 heavy chain and B5/L1 light chain

target: T1, human LAG-3(ECD)-mFc; test: FACS competition: mAb preincubated with human LAG-3(ECD)-mFc (1 ug/ml); binding to MHC class II on Daudi cells detected with anti-mouse Fc-PE
Experimental: Human Daudi cells were cultured in RPMI+10% FBS. Human LAG-3(ECD)-mFc protein (human LAG-3 ECD fused to mouse Fc) at 1 μg/ml final concentration was incubated with purified mouse, humanized, or chimeric anti-LAG-3 mAbs at various concentrations for 15 minutes at 4° C. The mixture was then added to 100,000 human Daudi cells in a 96-well round bottom plate, mixed and incubated for 15 minutes on ice. Cells were then centrifuged at 1,000 rpm for 5 minutes and washed with FACS buffer (PBS supplemented with 5% BSA) three times. The cells were then incubated with PE-conjugated goat anti-mouse Fc polyclonal antibodies on ice for 15 minutes, washed with FACS buffer three times and then resuspended in FACS buffer containing 0.1 μg/ml PI (propidine iodine) for live/dead cell gating. Cells were then run through the FACS Caliber instrument and the data were analyzed by the Flowjo software. Results of the inhibition of LAG-3 binding to Daudi cells by chimeric mAbs B1C, B3C, B4C, BSC, B9C, and B11C are shown in FIG. 4B.
The mouse anti-hLAG-3 mAbs B5 and B7 were humanized to reduce the potential of immunogenicity when used in human patients. The CDRs in both the heavy and light chains of the mouse mAb were grafted into human framework that have the highest possibility of maintaining the proper structure required for antigen binding. Backmutations from human reside to mouse residue were designed when necessary. The sequences of the humanized VH and VL regions are shown in Table 11 and Table 12, respectively. The humanized VH and VL regions were fused to the constant regions of human IgG4 heavy chain and kappa light chain, respectively, to generate humanized mAbs. Constructs corresponding to the mAb sequences were used for transient transfection in 293E cells. Purified mAbs were analyzed for their ability to inhibit hLAG-3 binding to MHC class II molecules on Daudi cells.

Row | Binder | IC50
1 | B1 | 1.35 nM
2 | B2 | 0.72 nM
3 | B3 | 4.18 nM
4 | B4 | 0.78 nM
5 | B5 | 0.7 nM
6 | B6 | 0.66 nM
7 | B7 | 0.9 nM
8 | B8 | 0.28 nM
9 | B9 | 1.59 nM
10 | B10 | 0.74 nM
11 | B11 | 1.59 nM
12 | B12 | 2.85 nM
13 | B13 | 2.91 nM
14 | B14 | 6.77 nM
15 | B15 | 1.59 nM
16 | B16 | 0.98 nM
17 | B17 | 5.32 nM
